Experimental data as given in the supplement of paper PMC10567573.

B1: PHTF1 (parent)
chain: SRHLNSQVKKTTTRWCHIVRDSDS

Variants of: B1
Test: protein stability index of a GFP-peptide fusion (GPS, HEK-293T) (PSI 1-6); higher = more stable
Details: c terminus: a fixed tail appended
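Also: lentivirally expressed fusions sorted by FACS into six bins by GFP to DsRed ratio, PSI derived from sequencing read proportions per bin multiplied by bin number.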

**Q.** For SRHLTSQVKKTTTRWCHIVRDSDS [N5T], which protein stability index is on record?
**A.** 2.38

**Q.** For SRHLRSQVKKTTTRWCHIVRDSDS [N5R], which protein stability index is on record?
**A.** 3.93

**Q.** With SRHLLSQVKKTTTRWCHIVRDSDS [N5L] as the variant, how does the protein stability index read?
**A.** 1.92

**Q.** Which protein stability index does the source give for SRHLMSQVKKTTTRWCHIVRDSDS [N5M] here?
**A.** 1.45

**Q.** For SRHLQSQVKKTTTRWCHIVRDSDS [N5Q], which protein stability index is on record?
**A.** 1.92

**Q.** For SRHLVSQVKKTTTRWCHIVRDSDS [N5V], which protein stability index is on record?
**A.** 1.29

**Q.** Which protein stability index does the source give for SRHLPSQVKKTTTRWCHIVRDSDS [N5P] here?
**A.** 2.22

**Q.** Which protein stability index does the source give for SRHLFSQVKKTTTRWCHIVRDSDS [N5F] here?
**A.** 2.02

**Q.** With SRHLKSQVKKTTTRWCHIVRDSDS [N5K] as the variant, how does the protein stability index read?
**A.** 1.8

**Q.** For SRHLWSQVKKTTTRWCHIVRDSDS [N5W], which protein stability index is on record?
**A.** 2.27

**Q.** Which protein stability index does the source give for SRHLESQVKKTTTRWCHIVRDSDS [N5E] here?
**A.** 1.59

**Q.** For SRHLISQVKKTTTRWCHIVRDSDS [N5I], which protein stability index is on record?
**A.** 2.73

**Q.** For SRHLDSQVKKTTTRWCHIVRDSDS [N5D], which protein stability index is on record?
**A.** 2.53

**Q.** Which protein stability index does the source give for SRHLGSQVKKTTTRWCHIVRDSDS [N5G] here?
**A.** 2.79

**Q.** With SRHLHSQVKKTTTRWCHIVRDSDS [N5H] as the variant, how does the protein stability index read?
**A.** 2.56

**Q.** With SRHLYSQVKKTTTRWCHIVRDSDS [N5Y] as the variant, how does the protein stability index read?
**A.** 2.16

**Q.** For SRHLSSQVKKTTTRWCHIVRDSDS [N5S], which protein stability index is on record?
**A.** 1.92

**Q.** Which protein stability index does the source give for SRHLCSQVKKTTTRWCHIVRDSDS [N5C] here?
**A.** 2.33

**Q.** For SRHLASQVKKTTTRWCHIVRDSDS [N5A], which protein stability index is on record?
**A.** 2.19

**Q.** With HRHLNSQVKKTTTRWCHIVRDSDS [S1H] as the variant, how does the protein stability index read?
**A.** 1.46

**Q.** For RRHLNSQVKKTTTRWCHIVRDSDS [S1R], which protein stability index is on record?
**A.** 2.51

**Q.** With PRHLNSQVKKTTTRWCHIVRDSDS [S1P] as the variant, how does the protein stability index read?
**A.** 2.47

**Q.** With TRHLNSQVKKTTTRWCHIVRDSDS [S1T] as the variant, how does the protein stability index read?
**A.** 2.09

**Q.** With MRHLNSQVKKTTTRWCHIVRDSDS [S1M] as the variant, how does the protein stability index read?
**A.** 2.52

**Q.** For WRHLNSQVKKTTTRWCHIVRDSDS [S1W], which protein stability index is on record?
**A.** 2.1

**Q.** For ARHLNSQVKKTTTRWCHIVRDSDS [S1A], which protein stability index is on record?
**A.** 2.52

**Q.** Which protein stability index does the source give for DRHLNSQVKKTTTRWCHIVRDSDS [S1D] here?
**A.** 3.06

**Q.** For IRHLNSQVKKTTTRWCHIVRDSDS [S1I], which protein stability index is on record?
**A.** 1.23

**Q.** With ERHLNSQVKKTTTRWCHIVRDSDS [S1E] as the variant, how does the protein stability index read?
**A.** 1.8

**Q.** With QRHLNSQVKKTTTRWCHIVRDSDS [S1Q] as the variant, how does the protein stability index read?
**A.** 2.38

**Q.** Which protein stability index does the source give for YRHLNSQVKKTTTRWCHIVRDSDS [S1Y] here?
**A.** 2.25

**Q.** With CRHLNSQVKKTTTRWCHIVRDSDS [S1C] as the variant, how does the protein stability index read?
**A.** 2.07

**Q.** For GRHLNSQVKKTTTRWCHIVRDSDS [S1G], which protein stability index is on record?
**A.** 2.06

**Q.** With LRHLNSQVKKTTTRWCHIVRDSDS [S1L] as the variant, how does the protein stability index read?
**A.** 1.51

**Q.** Which protein stability index does the source give for NRHLNSQVKKTTTRWCHIVRDSDS [S1N] here?
**A.** 2.51

**Q.** Which protein stability index does the source give for FRHLNSQVKKTTTRWCHIVRDSDS [S1F] here?
**A.** 1.76

**Q.** Which protein stability index does the source give for VRHLNSQVKKTTTRWCHIVRDSDS [S1V] here?
**A.** 1.84

**Q.** With KRHLNSQVKKTTTRWCHIVRDSDS [S1K] as the variant, how does the protein stability index read?
**A.** 2.26

**Q.** With SRHLNAQVKKTTTRWCHIVRDSDS [S6A] as the variant, how does the protein stability index read?
**A.** 2.29

**Q.** Which protein stability index does the source give for SRKLNSQVKKTTTRWCHIVRDSDS [H3K] here?
**A.** 2.02

**Q.** For SRALNSQVKKTTTRWCHIVRDSDS [H3A], which protein stability index is on record?
**A.** 2.23

**Q.** With SRRLNSQVKKTTTRWCHIVRDSDS [H3R] as the variant, how does the protein stability index read?
**A.** 1.79

**Q.** With SRLLNSQVKKTTTRWCHIVRDSDS [H3L] as the variant, how does the protein stability index read?
**A.** 2.08

**Q.** With SRSLNSQVKKTTTRWCHIVRDSDS [H3S] as the variant, how does the protein stability index read?
**A.** 1.5

**Q.** Which protein stability index does the source give for SRPLNSQVKKTTTRWCHIVRDSDS [H3P] here?
**A.** 1.64

**Q.** For SRQLNSQVKKTTTRWCHIVRDSDS [H3Q], which protein stability index is on record?
**A.** 2.28

**Q.** With SRNLNSQVKKTTTRWCHIVRDSDS [H3N] as the variant, how does the protein stability index read?
**A.** 1.69

**Q.** Which protein stability index does the source give for SRVLNSQVKKTTTRWCHIVRDSDS [H3V] here?
**A.** 2.36

**Q.** For SRFLNSQVKKTTTRWCHIVRDSDS [H3F], which protein stability index is on record?
**A.** 2.77

**Q.** Which protein stability index does the source give for SRCLNSQVKKTTTRWCHIVRDSDS [H3C] here?
**A.** 1.95

**Q.** Which protein stability index does the source give for SRELNSQVKKTTTRWCHIVRDSDS [H3E] here?
**A.** 2.52

**Q.** With SRWLNSQVKKTTTRWCHIVRDSDS [H3W] as the variant, how does the protein stability index read?
**A.** 1.53

**Q.** With SRMLNSQVKKTTTRWCHIVRDSDS [H3M] as the variant, how does the protein stability index read?
**A.** 2.15

**Q.** With SRDLNSQVKKTTTRWCHIVRDSDS [H3D] as the variant, how does the protein stability index read?
**A.** 1.58

**Q.** Which protein stability index does the source give for SRGLNSQVKKTTTRWCHIVRDSDS [H3G] here?
**A.** 2.21

**Q.** For SRILNSQVKKTTTRWCHIVRDSDS [H3I], which protein stability index is on record?
**A.** 1.25

**Q.** Which protein stability index does the source give for SRTLNSQVKKTTTRWCHIVRDSDS [H3T] here?
**A.** 2.23

**Q.** For SCHLNSQVKKTTTRWCHIVRDSDS [R2C], which protein stability index is on record?
**A.** 2.12

**Q.** With SPHLNSQVKKTTTRWCHIVRDSDS [R2P] as the variant, how does the protein stability index read?
**A.** 1.89

**Q.** With STHLNSQVKKTTTRWCHIVRDSDS [R2T] as the variant, how does the protein stability index read?
**A.** 2.15

**Q.** Which protein stability index does the source give for SAHLNSQVKKTTTRWCHIVRDSDS [R2A] here?
**A.** 2.38

**Q.** Which protein stability index does the source give for SHHLNSQVKKTTTRWCHIVRDSDS [R2H] here?
**A.** 1.96

**Q.** For SVHLNSQVKKTTTRWCHIVRDSDS [R2V], which protein stability index is on record?
**A.** 1.87

**Q.** Which protein stability index does the source give for SMHLNSQVKKTTTRWCHIVRDSDS [R2M] here?
**A.** 2.13

**Q.** For SWHLNSQVKKTTTRWCHIVRDSDS [R2W], which protein stability index is on record?
**A.** 2.08

**Q.** With SNHLNSQVKKTTTRWCHIVRDSDS [R2N] as the variant, how does the protein stability index read?
**A.** 1.87

**Q.** With SIHLNSQVKKTTTRWCHIVRDSDS [R2I] as the variant, how does the protein stability index read?
**A.** 2.2

**Q.** For SKHLNSQVKKTTTRWCHIVRDSDS [R2K], which protein stability index is on record?
**A.** 2.53

**Q.** Which protein stability index does the source give for SEHLNSQVKKTTTRWCHIVRDSDS [R2E] here?
**A.** 2.35

**Q.** Which protein stability index does the source give for SGHLNSQVKKTTTRWCHIVRDSDS [R2G] here?
**A.** 1.69

**Q.** Which protein stability index does the source give for SYHLNSQVKKTTTRWCHIVRDSDS [R2Y] here?
**A.** 2

**Q.** For SLHLNSQVKKTTTRWCHIVRDSDS [R2L], which protein stability index is on record?
**A.** 2.17

**Q.** Which protein stability index does the source give for SQHLNSQVKKTTTRWCHIVRDSDS [R2Q] here?
**A.** 2.4

**Q.** With SSHLNSQVKKTTTRWCHIVRDSDS [R2S] as the variant, how does the protein stability index read?
**A.** 2.23

**Q.** For SDHLNSQVKKTTTRWCHIVRDSDS [R2D], which protein stability index is on record?
**A.** 2.3

**Q.** For SFHLNSQVKKTTTRWCHIVRDSDS [R2F], which protein stability index is on record?
**A.** 2.56

**Q.** For SRHENSQVKKTTTRWCHIVRDSDS [L4E], which protein stability index is on record?
**A.** 2.56

**Q.** For SRHVNSQVKKTTTRWCHIVRDSDS [L4V], which protein stability index is on record?
**A.** 2.03

**Q.** For SRHINSQVKKTTTRWCHIVRDSDS [L4I], which protein stability index is on record?
**A.** 2.75

**Q.** With SRHGNSQVKKTTTRWCHIVRDSDS [L4G] as the variant, how does the protein stability index read?
**A.** 1.8

**Q.** Which protein stability index does the source give for SRHFNSQVKKTTTRWCHIVRDSDS [L4F] here?
**A.** 3.09

**Q.** With SRHPNSQVKKTTTRWCHIVRDSDS [L4P] as the variant, how does the protein stability index read?
**A.** 2.44

**Q.** With SRHQNSQVKKTTTRWCHIVRDSDS [L4Q] as the variant, how does the protein stability index read?
**A.** 2.12

**Q.** For SRHTNSQVKKTTTRWCHIVRDSDS [L4T], which protein stability index is on record?
**A.** 2.06

**Q.** Which protein stability index does the source give for SRHDNSQVKKTTTRWCHIVRDSDS [L4D] here?
**A.** 1.99

**Q.** With SRHKNSQVKKTTTRWCHIVRDSDS [L4K] as the variant, how does the protein stability index read?
**A.** 2.56

**Q.** Which protein stability index does the source give for SRHHNSQVKKTTTRWCHIVRDSDS [L4H] here?
**A.** 2.15

**Q.** With SRHWNSQVKKTTTRWCHIVRDSDS [L4W] as the variant, how does the protein stability index read?
**A.** 2.25

**Q.** Which protein stability index does the source give for SRHANSQVKKTTTRWCHIVRDSDS [L4A] here?
**A.** 2.58

**Q.** With SRHYNSQVKKTTTRWCHIVRDSDS [L4Y] as the variant, how does the protein stability index read?
**A.** 1.76

**Q.** For SRHMNSQVKKTTTRWCHIVRDSDS [L4M], which protein stability index is on record?
**A.** 1.76

**Q.** With SRHNNSQVKKTTTRWCHIVRDSDS [L4N] as the variant, how does the protein stability index read?
**A.** 2.05

**Q.** With SRHSNSQVKKTTTRWCHIVRDSDS [L4S] as the variant, how does the protein stability index read?
**A.** 2.29

**Q.** For SRHRNSQVKKTTTRWCHIVRDSDS [L4R], which protein stability index is on record?
**A.** 1.95
